US20170333564A1 (UNIVERSITY OF ROCHESTER, published 2017)
No end group written: not given here. *: point of attachment. Myristoyl = CCCCCCCCCCCCCC(=O)*

Molecular target: IRK (IR β-chain) immunoprecipitated from HEK cell lysates (UniProt P06213 763-1382, limits assumed)
Assay: cell-based or functional assay

Sequence of IRK (IR β-chain) immunoprecipitated from HEK cell lysates (P06213 763-1382 limits assumed): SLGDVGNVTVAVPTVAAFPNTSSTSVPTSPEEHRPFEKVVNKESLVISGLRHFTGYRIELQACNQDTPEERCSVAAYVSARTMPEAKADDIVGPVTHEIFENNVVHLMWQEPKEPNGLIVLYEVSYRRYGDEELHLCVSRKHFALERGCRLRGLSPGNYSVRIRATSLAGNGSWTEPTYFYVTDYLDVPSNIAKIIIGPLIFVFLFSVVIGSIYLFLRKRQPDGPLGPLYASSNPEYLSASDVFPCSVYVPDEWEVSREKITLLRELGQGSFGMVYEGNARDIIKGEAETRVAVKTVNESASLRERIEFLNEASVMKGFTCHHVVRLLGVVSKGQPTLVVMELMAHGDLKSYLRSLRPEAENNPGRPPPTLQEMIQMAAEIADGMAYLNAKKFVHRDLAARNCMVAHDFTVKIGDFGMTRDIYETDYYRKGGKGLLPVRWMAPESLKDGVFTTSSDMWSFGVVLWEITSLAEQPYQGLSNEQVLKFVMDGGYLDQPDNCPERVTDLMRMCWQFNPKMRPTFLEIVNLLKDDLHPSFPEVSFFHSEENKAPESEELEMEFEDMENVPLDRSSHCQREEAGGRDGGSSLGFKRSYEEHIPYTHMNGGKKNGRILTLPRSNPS

kinase activity of IRK immunoprecipitated from HEK cells treated with 40 µM myristoylated peptide for 15 minutes, IRS peptide substrate: ~3 fold
Binder: Myristoyl-KYCCSRK (cysteine pairing not given here) [P2, myr-KYCCSRK (hBVR-based peptide)]
